Results on 24 sequences are retold here after the supplement of paper PMC10899765.

Holding throughout (settings): 20 nM; 72 h
The test system of series [1] is MCF10A. In words: percent viability (nuclei count relative to siNT); higher = more viable cells. The procedure: (§1)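 After 72 h, cells were fixed and stained with Hoechst and anti-fibrillarin, and nucleoli per nucleus were counted with CellProfiler. Values are plate-adjusted percent effect for the one-nucleolus and 5+ nucleoli phenotypes, normalised to siNT (0%) and to the positive controls siNOL11 or siKIF11 (100%), as the mean of biological triplicates. Percent viability is the nuclei count relative to siNT.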

The test system of series [2] is MCF10A. Kind of series: 5+ nucleoli phenotype percent effect (relative to siNT 0% and siKIF11 100%); higher = more cells with five or more nucleoli. The procedure: as §1
The subject of series [3] is MCF10A. In words: one-nucleolus phenotype percent effect (relative to siNT 0% and siNOL11 100%); higher = more cells with one nucleolus (ribosome biogenesis inhibition). The procedure:
as §1

As for “UCAGUGCACUACAGAACUUUGU [hsa-miR-148a-3p]”, the percent viability in series [1] worked out at 88.9%. Besides, the “5+ nucleoli phenotype percent effect” value in series [2] is 68.2%. Moreover, the “one-nucleolus phenotype percent effect” value in series [3] was -16.7%.

On to ACUGAGCCUCUCUCUCUCCAG [hsa-miR-6751-3p], for which the percent viability in series [1] is 65.4%. Also, the “5+ nucleoli phenotype percent effect” value in series [2] was -22.5%. Besides, the “one-nucleolus phenotype percent effect” value in series [3] was -10.3%.

Turning to GGUGGGGGCUGUUGUUU [hsa-miR-4447], in series [1], the percent viability came out at 24.5%. Besides, in series [2], the “5+ nucleoli phenotype percent effect” value was -20.8%. For the same sequence, the “one-nucleolus phenotype percent effect” value in series [3] stood at 38.7%.

As to “CGGGGCCGUAGCACUGUCUGAGA [hsa-miR-128-1-5p]”, in series [1], the percent viability is 26.1%. Further, the “5+ nucleoli phenotype percent effect” value in series [2] was determined as 21.2%. For the same sequence, the “one-nucleolus phenotype percent effect” value in series [3] amounted to 22.5%.

As for GCGGGGCUGGGCGCGCG [hsa-miR-4508], in series [1], the percent viability stood at 90.5%. For the same sequence, the “5+ nucleoli phenotype percent effect” value in series [2] is 29.5%. In series [3], the “one-nucleolus phenotype percent effect” value was -26.4%.

In the case of CUCUAGAGGGAAGCGCUUUCUG [hsa-miR-523-5p], the percent viability in series [1] came out at 54.8%. The “5+ nucleoli phenotype percent effect” value in series [2] was -3.36%. The “one-nucleolus phenotype percent effect” value in series [3] stood at 5.46%.

Turning to GUGGGAUUUCUGAGUAGCAUC [hsa-miR-5089-5p], the percent viability in series [1] is 36.5%. In addition, the “5+ nucleoli phenotype percent effect” value in series [2] is -4.04%. For the same sequence, in series [3], the “one-nucleolus phenotype percent effect” value turned out to be 3.12%.

As to UGCAACUUACCUGAGUCAUUGA [hsa-miR-891b], the percent viability in series [1] came to 41.4%. In addition, the “5+ nucleoli phenotype percent effect” value in series [2] was -7.44%. The “one-nucleolus phenotype percent effect” value in series [3] is 1.72%.

As for UGCUGAUGGCAGAUGUCGGGUCUG [hsa-miR-8075], the percent viability in series [1] turned out to be 20.8%. Also, in series [2], the “5+ nucleoli phenotype percent effect” value was -34.6%. The “one-nucleolus phenotype percent effect” value in series [3] worked out at 44.2%.

Turning to “GUGCGGAACGCUGGCCGGGGCG [hsa-miR-6850-5p]”, the percent viability in series [1] turned out to be 45.3%. Also, in series [2], the “5+ nucleoli phenotype percent effect” value is -19.5%. Moreover, the “one-nucleolus phenotype percent effect” value in series [3] is 5.11%.

Turning to ACACAUGGGUGGCUGUGGCCU [hsa-miR-4717-3p], the percent viability in series [1] came to 66.4%. For the same sequence, in series [2], the “5+ nucleoli phenotype percent effect” value amounted to 24.6%. Besides, in series [3], the “one-nucleolus phenotype percent effect” value is -12.1%.

As to UAUGUAACAUGGUCCACUAACU [hsa-miR-379-3p], in series [1], the percent viability was 89.1%. Besides, in series [2], the “5+ nucleoli phenotype percent effect” value amounted to 38.4%. The “one-nucleolus phenotype percent effect” value in series [3] is -12%.

With “CCCUCUCUGUCCCACCCAUAG [hsa-miR-6769b-3p]”, the percent viability in series [1] was found to be 73.7%. The “5+ nucleoli phenotype percent effect” value in series [2] was determined as 91.5%. Also, in series [3], the “one-nucleolus phenotype percent effect” value is -27.6%.

Consider UGGUAGACUAUGGAACGUAGG [hsa-miR-379-5p], for which the percent viability in series [1] worked out at 31%. In series [2], the “5+ nucleoli phenotype percent effect” value was -21.8%. The “one-nucleolus phenotype percent effect” value in series [3] amounted to 12.4%.

For the sequence UUGGACGGUAAGGUUAAGCAA [hsa-miR-4804-5p], the percent viability in series [1] came out at 35.3%. The “5+ nucleoli phenotype percent effect” value in series [2] is -12.4%. For the same sequence, the “one-nucleolus phenotype percent effect” value in series [3] turned out to be 9.42%.

Take CUGUAAUAUAAAUUUAAUUUAUU [hsa-miR-2054]: in series [1], the percent viability is 168%. The “5+ nucleoli phenotype percent effect” value in series [2] was determined as 28%. Also, the “one-nucleolus phenotype percent effect” value in series [3] was -17.6%.

On to UGCGGGGCUAGGGCUAACAGCA [hsa-miR-744-5p], for which the percent viability in series [1] stood at 12%. Moreover, the “5+ nucleoli phenotype percent effect” value in series [2] was -35.1%. The “one-nucleolus phenotype percent effect” value in series [3] came out at 53.9%.

In the case of UGAUUGUCCAAACGCAAUUCU [hsa-miR-219-5p], in series [1], the percent viability amounted to 82.1%. Further, in series [2], the “5+ nucleoli phenotype percent effect” value turned out to be 14.5%. For the same sequence, the “one-nucleolus phenotype percent effect” value in series [3] is -9.06%.

UGAGUGAUUGAUAGCUAUGUUC [hsa-miR-4765]: in series [1], the percent viability was 52.9%. The “5+ nucleoli phenotype percent effect” value in series [2] is 24.9%. Also, the “one-nucleolus phenotype percent effect” value in series [3] was -19.8%.

As for CAAAGCGCUUCCCUUUGGAGC [hsa-miR-518d-3p], the percent viability in series [1] was 29.8%. In series [2], the “5+ nucleoli phenotype percent effect” value was -31.6%. Besides, the “one-nucleolus phenotype percent effect” value in series [3] amounted to 42.6%.

As for “UUCUCAAGAGGGAGGCAAUCAU [hsa-miR-514b-5p]”, in series [1], the percent viability is 43.1%. For the same sequence, the “5+ nucleoli phenotype percent effect” value in series [2] was found to be 36.5%. The “one-nucleolus phenotype percent effect” value in series [3] is -22.9%.

In the case of UGUGUCCCAUUAUUGGUGAUU [hsa-miR-3657], in series [1], the percent viability is 46.6%. In addition, in series [2], the “5+ nucleoli phenotype percent effect” value is -31.6%. Further, the “one-nucleolus phenotype percent effect” value in series [3] worked out at 32.2%.

As for AGAGGUAUAGGGCAUGGGAA [hsa-miR-202-3p], the percent viability in series [1] came to 42.3%. For the same sequence, the “5+ nucleoli phenotype percent effect” value in series [2] is 3.86%. Also, the “one-nucleolus phenotype percent effect” value in series [3] stood at 10.1%.

UAGUACCAGUACCUUGUGUUCA [hsa-miR-624-5p]: the percent viability in series [1] was found to be 26.3%. The “5+ nucleoli phenotype percent effect” value in series [2] is -9.19%. Also, the “one-nucleolus phenotype percent effect” value in series [3] was -2.83%.
